# Laboratory results reported in patent US20050123546A1 (Hoffmann-La Roche, published 2005).
# Substitutions are numbered along the chain they refer to.
# T1: human CD20 (human, UniProt P11836 1-297)
# T1 construct: whole, on cells; also called human CD20 antigen; Bp35
# T1 sequence (looked up): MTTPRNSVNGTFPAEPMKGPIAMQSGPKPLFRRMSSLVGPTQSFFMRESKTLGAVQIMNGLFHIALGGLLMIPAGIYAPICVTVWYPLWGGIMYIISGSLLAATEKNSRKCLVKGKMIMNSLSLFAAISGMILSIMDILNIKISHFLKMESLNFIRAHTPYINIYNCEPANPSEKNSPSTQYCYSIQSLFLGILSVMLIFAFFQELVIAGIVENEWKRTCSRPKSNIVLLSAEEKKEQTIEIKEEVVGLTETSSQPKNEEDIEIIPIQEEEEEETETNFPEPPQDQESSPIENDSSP
# B1: chimeric B-Ly1 antibody chB-Ly1 (antibody, V domains shown)
# VH: EVKLQQSGPELVKPGASVKISCKASGYAFSYSWMNWVKLRPGQGLEWIGRIFPGDGDTDYNGKFKGKATLTADKSSNTAYMQLTSLTSVDSAVYLCARNVFDGYWLVYWGQGTLVTVSA
# VL: DIVLTQTTNPVTLGTSASISCRSSKSLLHSNGITYLYWYLQKPGQSPQLLIYQMSNLVSGVPDRFSSSGSGTDFTLRISRVEAEDVGVYYCAQNLELPYTFGGGTKLEIKR
# notes: also called parental antibody B-Ly1; copies: 2 + 2
# B2: B-HH1 complexed with the humanized B-Ly1 light chain (KV1) (antibody, human IgG1, V domains shown)
# VH: QVQLVQSGAEVKKPGSSVKVSCKASGYTFSYSWMSWVRQAPGQGLEWMGRIFPGDGDTDYAQKFQGRVTITADKSTSTAYMELSSLRSEDTAVYYCARNVFDGYWLVYWGQGTLVTVSS
# VL: DIVMTQTPLSLPVTPGEPASISCRSSKSLLHSNGITYLYWYLQKPGQSPQLLIYQMSNLVSGVPDRFSGSGSGTDFTLKISRVEAEDVGVYYCAQNLELPYTFGGGTKVEIKR
# notes: also called BHH1-KV1
# B3: BHL11-KV1 (antibody, human IgG1, V domains shown)
# VH: QVQLVESGGGLVKPGGSLRLSCAASGFTFSYSWMNWVRQAPGKGLEWVGRIFPGDGDTDYNGKFKGRVTITADKSTSTAYMELSSLRSEDTAVYYCARNVFDGYWLVYWGQGTLVTVSS
# VL: B2 VL
# notes: B-HL8 with the single mutation Glu1Gln
# B4: B-HH1 (as compared in FIG. 12; light chain not stated) (antibody, V domains shown)
# VH: B2 VH
# VL: DIVMTQTPLSLPVTPGEPASISCRSSKSLLHSNGITYLYWYLQKPGQSPQLLIYQMSNLVSGVPDRFSGSGSGTDFTLKISRVEAEDVGVYYCAQNLELPYTFGGGTKVEIK
# B5: BHH2-KV1 humanized IgG1 B-Ly1 anti-human CD20 antibody (non-glycoengineered) (antibody, V domains shown)
# VH: B2 VH with T28A, S35N, A61N, Q62G, Q65K
# VL: B2 VL
# notes: also called BHH2-KV1-wt
# B6: B-HH3 complexed with the humanized B-Ly1 light chain (KV1) (antibody, human IgG1, V domains shown)
# VH: B2 VH with T28A, S35N, A61N, Q62G, Q65K, Y95L
# VL: B2 VL
# notes: also called BHH3-KV1
# B7: BHL8-KV1 (antibody, human IgG1, V domains shown)
# VH: B3 VH with Q1E
# VL: B2 VL
# Target: T1, human CD20
# Assay: flow cytometry on Raji cells
# Protocol: 500.000 in 180 μl FACS buffer (PBS containing 2% FCS and 5 mM EDTA) were transferred to 5 ml polystyrene tubes and 20 ul 10 fold concentrated anti-CD20 antibody samples (1-5000 ng/ml final concentration) or PBS only were added and the tubes were incubated at 4° C. for 30 min. Subsequently, samples were washed twice with FACS buffer and pelleted at 300×g for 3 min. Supernatant was aspirated off and cells were taken up in 100 μl FACS buffer and 1 μl anti-Fc-specific F(ab′)₂—FITC fragments (Jackson Immuno Research Laboratories, USA) was added and the tubes were incubated at 4° C. for 30 min. Samples were washed twice with FACS buffer and taken up in 500 μl of FACS buffer containing 0.5 μg/ml PI for analysis by Flow Cytometry. Binding was determined by plotting the geometric mean fluorescence against the antibody concentrations.
binding result,binding intensity/stoichiometry compared to B-Ly1,Binder
binds,–,B1
binds,–,B2
binds,–,B3
–,~0.5 fold of chB-Ly1,B4
binds,–,B5
binds,–,B6
binds,–,B7
